From PMC5988292, “Crystal structures of the PH domains from Lbc family of RhoGEFs bound to activated RhoA GTPase” (Data in Brief, 2018)
“And” between values parts separate entries of the source, which are not always exact repeats. Equal entries are not always repeated.

B1: PH domain from mouse p114RhoGEF (residues 302-444) (domain or fragment, UniProt Q6P9R4-1 302-444, looked up)
chain: YEKDQRLKEIAAKTDQKSSGKLKNGLTFRKEDMLQQRQLHLEGALCWKSTSGRLKDVLAVLLTDVLLLLQEKDQKYVFASVDSKPPVISLQKLIVREVANEEKAMFLISASMQGPEMYEMYTSSKEDRNIWMAHIRRAVESCP
notes: p114RhoGEF, mouse, PH domain, residues 302-444; The final model holds residues 299-444, three more at the N-terminus than the stated construct; also called p114-PH; p114RhoGEF-PH
B2: PRG-PH (non-fluorescent PH domain of PDZRhoGEF) (domain or fragment, UniProt O15085 924-1085, looked up)
chain: VKQTENRHRLEGYQKRLDATALERASNPLAAEFKSLDLTTRKMIHEGPLTWRISKDKTLDLHVLLLEDLLVLLQKQDEKLLLKCHSKTAVGSSDSKQTFSPVLKLNAVLIRSVATDKRAFFIICTSKLGPPQIYELVALTSSDKNTWMELLEEAVRNATRHP
notes: PH domain of PDZRhoGEF (PRG); also called PDZRhoGEF-PH
B3: p115-PH (PH domain of p115RhoGEF) (domain or fragment, UniProt Q92888 647-760, looked up)
chain: KLVHEGPLTWRVTKDKAVEVHVLLLDDLLLLLQRQDERLLLKSHSRTLTPTPDGKTMLRPVLRLTSAMTREVATDHKAFYVLFTWDQEAQIYELVAQTVSERKNWCALITETAG
notes: PH domain of p115 (Lbc-family RhoGEF)
B4: PH domain from human AKAP-LbcRhoGEF (residues 2195-2333) (domain or fragment, UniProt Q12802 2195-2333, looked up)
chain: YEKKVRLNEIYTKTDSKSIMRMKSGQMFAKEDLKRKKLVRDGSVFLKNAAGRLKEVQAVLLTDILVFLQEKDQKYIFASLDQKSTVISLKKLIVREVAHEEKGLFLISMGMTDPEMVEVHASSKEERNSWIQIIQDTIN
notes: AKAP-LbcRhoGEF, human, PH domain, residues 2195-2333; also called AKAP-Lbc-PH; AKAP-LbcRhoGEF-PH

The binders below were run against T1, YFP-RhoA·GTPγS (UniProt P61586 1-193) (assay: FRET or BRET; competition: non-fluorescent PH domain titrated into 1 μM YFP-RhoA·GTPγS + 1 μM CFP-PRG-PH; 20 mM NaHEPES pH 7.5, 1 mM EDTA, 1 mM DTT, 100 mM NaCl, 5 mM MgCl2; 25 °C; ratio 525/475 nm). Conditions: both partners purified.
T1 construct: RhoA; Loaded with GTPγS

With B1 the IC50 was > 60 µM and ~60 µM.

Going from B2 to B3, the IC50 rises from 3 µM to over 150 µM. The first is the more potent here.

With B4 the IC50 was about 20 µM.
